Test results: IntAct's records for PubMed 17954914

B1: Calcipressin-like protein (Saccharomyces cerevisiae), P36054 (parent)
chain: MGNIITDTIIITSDKCDIVDNDNVERIQVWLSKNILRKFQINENEPLQLIILKRFKRILLICPSHDISQHVMDASRALEMENFNFSYSLQDGQRNLTKQYLKVPESEKMFLISPPASPPPEFDFSKCEDAPQRHIQSHIQQDQQQRLEASQLLPNNPDKNNNGTFTLLKSKVGAITIDRCPTNDGNGQMQLADHVKTAFPPKSIFDTDDDD
partner: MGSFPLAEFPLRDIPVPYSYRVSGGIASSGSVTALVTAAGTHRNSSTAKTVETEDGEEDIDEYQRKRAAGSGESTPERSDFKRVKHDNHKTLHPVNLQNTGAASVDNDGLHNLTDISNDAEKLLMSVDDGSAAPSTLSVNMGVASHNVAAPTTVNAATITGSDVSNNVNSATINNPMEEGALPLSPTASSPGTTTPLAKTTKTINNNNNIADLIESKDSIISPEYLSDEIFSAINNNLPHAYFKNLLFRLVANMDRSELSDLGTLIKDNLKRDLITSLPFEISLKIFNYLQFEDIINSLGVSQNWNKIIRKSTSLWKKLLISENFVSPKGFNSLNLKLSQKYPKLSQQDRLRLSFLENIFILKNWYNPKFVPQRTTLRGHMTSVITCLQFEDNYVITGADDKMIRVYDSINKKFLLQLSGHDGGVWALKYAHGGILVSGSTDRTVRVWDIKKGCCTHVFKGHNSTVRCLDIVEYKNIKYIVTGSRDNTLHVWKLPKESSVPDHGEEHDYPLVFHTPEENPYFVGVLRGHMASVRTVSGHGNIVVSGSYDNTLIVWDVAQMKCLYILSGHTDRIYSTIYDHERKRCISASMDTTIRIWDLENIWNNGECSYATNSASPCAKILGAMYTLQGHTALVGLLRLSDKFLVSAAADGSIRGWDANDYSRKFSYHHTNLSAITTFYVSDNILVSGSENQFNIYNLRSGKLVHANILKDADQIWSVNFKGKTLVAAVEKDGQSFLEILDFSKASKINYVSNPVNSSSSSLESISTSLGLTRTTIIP

Variants of: B1
Details: with cdc4_yeast CDC4, P07834

Row | Variant | effect of a mutation on the interaction
1 | MGNIITDTIIITSDKCDIVDNDNVERIQVWLSKNILRKFQINENEPLQLIILKRFKRILLICPSHDISQHVMDASRALEMENFNFSYSLQDGQRNLTKQYLKVPESEKMFLISPPAAPPPEFDFSKCEDAPQRHIQSHIQQDQQQRLEASQLLPNNPDKNNNGTFTLLKSKVGAITIDRCPTNDGNGQMQLADHVKTAFPPKSIFDTDDDD [S117A] | disrupting interaction
2 | MGNIITDTIIITSDKCDIVDNDNVERIQVWLSKNILRKFQINENEPLQLIILKRFKRILLICPSHDISQHVMDASRALEMENFNFSYSLQDGQRNLTKQYLKVPESEKMFLIAPPASPPPEFDFSKCEDAPQRHIQSHIQQDQQQRLEASQLLPNNPDKNNNGTFTLLKSKVGAITIDRCPTNDGNGQMQLADHVKTAFPPKSIFDTDDDD [S113A] | disrupting interaction
3 | MGNIITDTIIITSDKCDIVDNDNVERIQVWLSKNILRKFQINENEPLQLIILKRFKRILLICPSHDISQHVMDASRALEMENFNFSYSLQDGQRNLTKQYLKVPESEKMFLIAPPAAPPPEFDFSKCEDAPQRHIQSHIQQDQQQRLEASQLLPNNPDKNNNGTFTLLKSKVGAITIDRCPTNDGNGQMQLADHVKTAFPPKSIFDTDDDD [S113A;S117A] | disrupting interaction strength
